Results on one molecule are retold here after patent US20220241369A1, “COMPOSITIONS AND METHODS OF MODULATING INFLAMMATION” (La Jolla Institute for Allergy and Immunology, priority 2018, published 2022).

For test [1], the system named is OVA-induced food allergy (allergic diarrhea). As to the kind of experiment: Therapeutic i.v. treatment with HRF inhibitor after allergic diarrhea is established. Type of test: in vivo, mouse. Conditions: i.v. 30 μg twice. How it is done:
FIGS. 5A-5F show therapeutic treatment with HRF inhibitor ameliorates the severity of food allergy. Mice were sensitized and i.g. challenged with OVA. By the seventh OVA challenge, all the mice suffered diarrhea. These mice were pretreated i.v. with 30 μg of HRF-2CA (2CA) or PBS (OVA) before challenged with OVA two more times. (FIG. 5A) Procedure scheme. (FIG. 5B) Diarrhea severity (n=11 for OVA, n=13 for HRF-2CA and n=4 for non-sensitized control (not shown); pooled data of two independent experiments). ***: p<0.001 by two-way ANOVA. (FIG. 5C) Total and OVA-specific IgE and IgG1 concentration in sera were measured by ELISA. (FIG. 5D) mMCP-1 in sera was measured by ELISA. (FIG. 5E) Sections of jejunum were stained with chloroacetate esterase. (FIG. 5C—FIG. 5E) *, **, ***: p<0.05, p<0.01, p<0.001 by Student's t-test. (FIG. 5F) Similar i.v. therapeutic treatment of allergic mice was conducted with 30 μg of synthetic N19 peptide (n=12 for OVA and n=12 for pepN19; pooled data of two independent experiments). […] by two-way ANOVA.
Mice were i.p. sensitized with OVA (50 μg/mouse) plus alum on days 0 and 14. From day 28, mice were i.g. challenged with OVA (25 or 50 mg) or PBS (control) three times a week. Before each challenge, mice were starved for 3 h, then i.g. pretreated with GST, GST-N19 (100 μg/mouse), synthetic N19 peptide, or HRF-2CA. The development of diarrhea was monitored for 90 min after OVA challenge. Diarrhea severity (30) was based on states of stool: solid (score 0), funicular (score 1), slurry (score 2), and watery (score 3).
Applicant next tested whether HRF inhibitors modulate food allergy after diarrhea has begun. […] One cohort of mice was intravenously (i.v.) treated twice with PBS followed by OVA challenge, and the other were i.v. treated twice with 30 μg of HRF-2CA followed by OVA challenge (FIG. 5A).

Test [2] concerns the target IgE on mucosal (IgE+ mMCP-1+, c-Kit+) mast cells of the small intestine of OVA-sensitized/OVA-challenged mice (mouse). As to the kind of experiment: confocal microscopy of jejunum, anti-His tag staining (data not shown).
For test [3], the system named is sensitization phase of murine food allergy. Nature of the test: Pretreatment with HRF inhibitor before sensitization with OVA plus alum. Conditions: 100 μg i.g. one day before i.p. immunization on days 0 and 14. Type of test: in vivo, mouse. How it is done:
Mice were i.g. pretreated with 100 μg of GST, GST-N19, HRF-2CA or PBS (OVA) one day before i.p. immunization with OVA plus alum on days 0 and 14. From day 28, mice were i.g. challenged with OVA three times a week. (FIG. 9A) Procedure scheme. (FIG. 9B) The development of diarrhea was monitored after OVA challenge. (n=5 for OVA, n=4 for GST, n=5 for N19, n=5 for 2CA, and n=3 each for unsensitized pretreated groups (not shown)). (FIG. 9C, FIG. 9D) Total IgE and IgG1 were measured by ELISA.
Whether HRF inhibitors affect the sensitization phase of food allergy was tested.

In test [4] the test system is c-Kit+ mucosal mast cells of the small intestine. Nature of the test: Ex vivo mast cell activation test (MCAT). Type of test: cell-based, mouse. Conditions: cells from allergic mice, HRF-2CA 300 μg/ml. How it is done: FIGS. 2A-2C show mucosal mast cells can be activated ex vivo by antigen. Cells were released with EDTA from small intestines of non-sensitized/OVA challenged (Cont) or OVA-sensitized/OVA-challenged (OVA) mice, and mononuclear cells were selected. The cells were incubated for 15 min at 37° C. with OVA or anti-IgE antibody, and activation of Kit^+ mast cells was measured by flow cytometry (FIG. 2A, FIG. 2B). **, ***: p<0.01, p<0.001 by Student's t-test. (n=2; a representative of 2 independent experiments) (FIG. 2C) Mucosal cells derived from OVA-sensitized/OVA-challenged mice were stimulated with PBS (n=4), OVA (10 ng/ml, n=4) or HRF dimer (100 μg/ml, n=2) in the presence or absence of HRF-2CA (300 μg/ml).
FIGS. 11A-11C show HRF dimer, but not monomer can activate mast cells. (FIG. 11A) Purified dimeric and monomeric HRF expressed in E. coli. Recombinant HRF-[…] was purified first by Histrap HP and then Sephacryl S-200 HR16/60. Two peaks were observed by Sephacryl size fractionation. The first (Fr1) and second (Fr3) peaks contained dimer and monomer, respectively, as shown by SDS-PAGE. Fr1 and Fr3 were used for mast cell stimulation. (FIG. 11B) Cells were released with 10 mM EDTA from small intestines of OVA-sensitized/OVA-challenged mice, and mononuclear cells were selected. The cells were incubated for 15 min at 37° C. with mHRF monomer or dimer (100 μg/ml), or PBS, and Kit^+ mast cell activation (LAMP-1^+) was measured by flow cytometry (n=3). (FIG. 11C) Control experiments indicate an excellent specificity of the assay for HRF multimers. HRF-2CA (2CA) was used as a monomer control (n=2 for each concentration). Note that total concentrations of the 1:9 mixture of dimer:monomer gave almost the same luminescence values as did ten-fold less concentrations of dimer.
Twenty-four hours after the last OVA challenge, mice were sacrificed and small intestines (0.5-15 cm from stomach) were collected. The intestinal tissues were opened longitudinally and washed with PBS. Then, the tissues were incubated with 10 mM EDTA-PBS for 30 min at 37° C. After incubation, the tissues were transferred to 30 ml PBS in 50 ml tubes and vigorously shaken. After washed, the cells were resuspended in 40% Percoll solution and slowly loaded on the top of 75% Percoll solution. The cells were then centrifuged (2000 rpm, 20 min) and lymphocytes were collected. The cells were once centrifuged and resuspended in Tyrode's buffer. Abs (Biotin-anti-CD4 mAb (clone RM4-5), Biotin-anti-CD8 mAb (clone 53-6.7), Biotin-anti-B220 mAb (clone RA3-6B2), Biotin-anti-CD326 mAb (clone G8.8), PE-anti-CD117 (clone 2B8), AlexaFluor647-anti-LAMP-1 mAb (clone 1D4B)) (Biolegend) were added and cells were then stimulated with OVA, anti-IgE (clone RME-1, BioLegend) and recombinant dimeric murine HRF for 15 min at 37° C. After activation, cells were washed and incubated with FITC-streptavidin (Catalog #405202, Biolegend) for 30 min at 4° C. LAMP-1 expression was detected using FACS Calibur. Data were analyzed using FlowJo software.

B1: HRF-2CA-His6, a monomeric mutant of mouse HRF (protein)
chain: MIIYRDLISHDELFSDIYKIREIADGLALEVEGKMVSRTEGAIDDSLIGGNASAEGPEGEGTESTVVTGVDIVMNHHLQETSFTKEAYKKYIKDYMKSLKGKLEEQKPERVKPFMTGAAEQIKHILANFNNYQFFIGENMNPDGMVALLDYREDGVTPFMIFFKDGLEMEKAHHHHHH
Regarding B1, the “clinical scores (diarrhea severity, severity of food allergy)” value in test [1] (after diarrhea by the 7th OVA challenge) is recorded as “significantly reduced”. In test [1] (therapeutic), the mucosal mast cells result is reported as “did not reduce”; the “serum mMCP-1 levels” value was “modestly but significantly reduced”; the “total IgE, IgG1” value was “did not reduce”. The percent of IgE+ mMCP-1+ mast cells targeted in test [2] is 64%. The “sensitization phase of murine food allergy” value in test [3] was “do not affect”. Besides, in test [4] (HRF dimer 100 μg/ml), the “HRF-induced activation of mucosal mast cells” value was “significantly suppressed”. Further, in test [4] (OVA 10 ng/ml), the “OVA-induced activation of mucosal mast cells” value was “significantly suppressed”.
